Data: patent US6964763B1, “Methods and compositions for inhibiting HIV infectivity and blocking chemokine activity” (priority 1997, dated 2005)

B1: CFP67-157: GST fusion protein containing the TSP1 binding domain of CD36 (aa 67-157) (protein)
chain: IFDVQNPQEVMMNSSNIQVKQRGPYTYRVRFLAKENVTQDAEDNTVSFLQPNGAIFEPSLSVGTEADNFTVLNLAVAAASHIYQNQFVQMI
modifications: left off: a dimerising Fc or GST
B2: LFP75-155: GST fusion protein containing the LIMPII TSP binding domain (aa 75-155) (protein)
chain: ILRGETPRVEEVGPYTYRELRNKANIQFGDNGTTISAVSNKAYVFERDQSVGDPKIDLIRTLNIPVLTVIEWSQVHFLREI
modifications: left off: a dimerising Fc or GST
B3: LIMPII peptide: LIMPII TSP-binding peptide, 10 kDa product purified after removal of GST moiety by proteolytic cleavage (protein)
chain: B2 chain
B4: LFP156-243: control GST fusion protein representing downstream LIMPII sequences (protein)
chain: IEAMLKAYQQKLFVTHTVDELLWGYKDEILSLIHVFRPDISPYFGLFYEKNGTNDGDYVFLTGEDSYLNFTKIVEWNGKTSLDWWITD
modifications: left off: a dimerising Fc or GST

Assays:
[1] = tested on: CD4-gp120 complex formation; test: Competitive inhibition of 125I-CD4 binding to immobilized gp120; parameters: species or system HIV-1 (MN and LAI isolates); conditions: 10-fold molar excess (0.5 μM) competitor, 50 nM 125I-CD4, MN and LAI gp120
Procedure: FIG. 5 is a graph showing competitive inhibition of ^125I-CD4 binding to gp120. […] Samples were incubated, and bound TSP1 was measured as in FIG. 2. A single data set of triplicate samples (η=3, error as SD) is shown.
Radiolabeling was performed with Na[^125I]
These observations support a role for salivary TSP1 as a direct inhibitor of HIV infectivity.

[2] = biological target: recombinant HIV-1 gp160 (gp120 non-covalently linked to gp41) (Human immunodeficiency virus type 1 group M subtype B, UniProt P03375); conditions: 10-fold molar excess (0.5 μM) unlabeled competitor, 50 nM 125I-TSP1
Procedure: Increasing concentrations of soluble ^125I-labeled TSP1 (1 nM-μM) were added to immobilized recombinant HIV-1 gp160 for 3 hours at 22° C., and bound TSP1 measured after extensive washing. Non-linear curve fit was generated with Excell™ version 5.0. Apparent affinity was estimated from Scatchard analysis. (n=2; error calculated as standard deviation, SD).
A fixed concentration of ^125I-labeled TSP 1(50 nM) was added to immobilized rgp 160 in the absence or presence of 10-fold molar excess (0.5 μM) unlabeled TSP1, fusion protein LFP75-155 containing the LIMPII TSP binding domain (aa 75-155), or downstream fusion protein LFP 156-243. Samples were incubated, and bound TSP 1 was measured as in FIG. 2A. Plots represent single data sets of triplicate samples. (n=3, error as SD).
Briefly, TSP1 (5-10 μg/ml) or fusion proteins and peptides (10-20 μg/ml) were immobilized on detachable 96-well microtiter plate strips (Immulon-4 Remov-a-well, Dynatech Laboratories, Inc.), by overnight incubation at 4° C. in carbonate buffer (100 mM Na2CO3/1 mM MgCl2/0.02% NaN3, pH 9.8). Washed wells were blocked with 0.5% bovine serum albumin (“BSA”), then incubated in triplicate with soluble radiolabeled ligand for 2.5 hours at 37° C. After extensive washing in 50 mM Tris pH 7.5, 150 mM NaCl, 0.5% Tween-20 (TBS-Tween), bound radioactivity was quantified by gamma counter. Radiolabeling was performed with Na[^125I] […] Specific activity of Na[^125I] was determined for each experiment, ranging from 0.06-1.0 μCi/μg. Specific binding was determined as quenchable in the presence of excess unlabeled ligand, above background binding to BSA-coated wells.

HIV-1 isolate IIIB = test: HIV-1 infectivity assay, virus pre-incubated with TSP1 or saliva, p24 ELISA day 7; type: cell-based
Procedure: HIV-1 isolate IIIB was pre-incubated in the absence of TSP1, or with various concentrations of purified TSP1 for 1 hour at 37° C. Pre-incubated virus-TSP1 mixtures were added to target cells either directly (−), or first passed through 0.2 μm filters (+). Phorbol myrisate acetate (“PMA”) activated primary peripheral blood mononuclear cells (“PBMC”), SK23 (T-cell line) or U937 (promonocytic line) were inoculated with the multiplicities of infection (“moi”) indicated. After an additional 1 hour at 37° C., infected cells were washed, cultured for 7 days, and HIV-1 p24 antigen measured by ELISA. Inhibition is expressed for a single data set as percent of maximum p24 detected in the absence of TSP1.
PMA-stimulated primary PBMC were infected with 0.02 moi HIV/IIIB that had been pre-incubated with TSP1 alone, or with LIMPII fusion protein LFP75-155 alone or in the presence of TSP1, and filtered prior to incubation as in FIG. 7. TSP-mediated inhibition is expressed as percent decrease in p24 relative to maximum p24 detected in the absence of TSP 1. Data shown represent the average of two independent experiments (error as SD). […]

Molecule | inhibition of 125I-CD4 binding to immobilized gp120 [1] [%] | inhibition of 125I-TSP1 binding to gp160 [2] | abrogation of the inhibitory effect of TSP1 by competitor (HIV-1 isolate IIIB; 1 μM LIMPII peptide, 50-100 μg/ml TSP1, PBMC, 0.02 moi) | decrease of HIV-1 infectivity, peptide alone (HIV-1 isolate IIIB; LIMPII peptide alone, PBMC) [%]
B1 | ~89 |  |  | 
B2 | ~89 | 47±14% |  | 
B3 |  |  | 83-90% | 9
B4 | 32±5 | did not |  | 
